Experimental data published in patent publication US20060051344A1.

How the values were obtained:
[1] = target: these two hybridoma culture supernatants; experiment: competitive EIA against biotinylated goby urotensin II
[2] = target: monoclonal antibody AUII103-5-41a; experiment: competitive EIA; ratio of the antigen levels giving (B/B0)=0.5 (0.68 nM / 17.4 nM)
[3] = target: monoclonal antibody AUII103-5-41a; experiment: competitive EIA: unlabelled peptide displaces biotinylated goby urotensin II from captured antibody
[4] = target: monoclonal antibody AUII5-6-10a; experiment: as above

IC50 [1] [nM]	human urotensin II level at (B/B0)=0.9 [1] [nM]	ratio of reactivity with human urotensin II to reactivity with porcine urotensin II-1 [2] [time]	IC50 [3] [nM]	IC50 [4] [nM]	Binder
0.5 to 2	0.2	0.04	0.68	1.2	ETPDCFWKYCV [human urotensin II]
–	–	–	17.4	–	GPTSECFWKYCV [porcine urotensin II-1]
